Paper PMC12328707, “Potassium binding by carbonyl clusters, halophilic adaptation and catalysis of Haloferax mediterranei D-2-hydroxyacid dehydrogenase” (Communications Biology, 2025)

Tests used:
Assay in all cases: purified protein
Format in all cases: biochemical, Haloferax mediterranei
[1] = substrate: NC(=O)C1=CN([C@@H]2O[C@H](COP(=O)(O)OP(=O)(O)OC[C@H]3O[C@@H](n4cnc5c(N)ncnc54)[C@H](O)[C@@H]3O)[C@@H](O)[C@H]2O)C=CC1; conditions: 20 mM 2-ketohexanoic acid, 4 M KCl, 50 mM HEPES pH 8.0, 22 °C, varied: cofactor
[2] = substrate: CCCCC(=O)C(=O)O; conditions: 0.25 mM NADPH, 4 M KCl, 50 mM HEPES pH 8.0, 22 °C
[3] = substrate: NC(=O)C1=CN([C@@H]2O[C@H](COP(=O)(O)OP(=O)(O)OC[C@H]3O[C@@H](n4cnc5c(N)ncnc54)[C@H](OP(=O)(O)O)[C@@H]3O)[C@@H](O)[C@H]2O)C=CC1; conditions: 4 mM 2-ketohexanoic acid, 4 M KCl, 50 mM HEPES pH 8.0, 22 °C, varied: cofactor

B1: D2HDH (Haloferax mediterranei ATCC 33500) (protein)
chain: MHIERLAVDESVGRAMPPQRFIEALSDLGVPVEFAGEDEQFGPGDAVASFGHRDAFLDADWVHCIRAGYDEFPVGVYEEAGTYLTNSTGIHGTTVGETVAGYMLTFARRLHAYRDAQHDHAWDLPRYEEPFTLAGERVCVVGLGTLGRGVVDRAAALGMEVVGVRRSGDPVDNVSTVYTPDRLHEAIADARFVVLATPLTDETEGMVAAPEFETMREDASLVNVARGPVVVESDLVAALDSGDIAGAALDVFSEEPLPEDSPLWDFEDVLITPHVSAATSKYHEDVAALIRENIEKIATGDELTNRVV
notes: homodimer (~66 kDa; 79 kDa by gel filtration); residues 1-308; no tag mentioned
- Km [1]: 97 ± 18 µM
- Vmax [1]: 4.4 µmol/min/mg
- kcat [1]: 2.48 ± 0.167 s⁻¹
- kcat/Km [1]: 25600 M⁻¹ s⁻¹
- Km [2]: 460 ± 30 µM
- Vmax [2]: 2.5 µmol/min/mg
- kcat [2]: 1.38 ± 0.0333 s⁻¹
- kcat/Km [2]: 3000 M⁻¹ s⁻¹
- Km [3]: 14 ± 4 µM
- Vmax [3]: 2.5 µmol/min/mg
- kcat [3]: 1.38 ± 0.0667 s⁻¹
- kcat/Km [3]: 98800 M⁻¹ s⁻¹
